According to patent US9067981 (Janssen / Centocor, dated 2015):

T1: Aβ1-10 peptide (immobilized)
T1 construct: also called Ab1-10
T1 peptide: DAEFRHDSGY

T2: Aβ1-7 peptide (amino acids 1-7 of SEQ ID NO:1)
T2 construct: also called Aβ 2-7 (the part visible in the superimposed models)
T2 peptide: DAEFRHD


Key:
[1] = molecular target: T1, Aβ1-10 peptide (immobilized); test: BIACORE (SPR), immobilized Aβ1-10, bivalent interaction assumed
[2] = molecular target: T2, Aβ1-7 peptide (amino acids 1-7 of SEQ …); test: X-ray crystal structure of the Fab:peptide complex
[3] = molecular target: T3, Aβ1-40 peptide (amino acids 1-40 of SEQ ID NO:1); test: comparison of unit cell parameters of the Aβ1-7 and Aβ1-40 crystals
T3 construct: also called Aβ40

Row | Binder | Kd [1] [nM] | binding result [2] | binding result [3]
1 | 12A11 murine IgG1 kappa monoclonal antibody (antibody, V domains shown) VH: QVTLKESGPGILKPSQTLSLTCSFSGFSLSTSGMSVGWIRQPSGKGLEWLAHIWWDDDKYYNPSLKSRLTISKDTSRNQVFLKITSVDTADTATYYCARRTTTADYFAYWGQGTTLTVSS VL: DVLMTQTPLSLPVSLGDQASISCRSSQSIVHSNGNTYLEWYLQKPGQSPKLLIYKVSNRFSGVPDRFSGSGSGTDFTLKISRVEAEDLGIYYCFQSSHVPLTFGAGTKLELK | 8.4 |  | 
2 | Fab fragment of 12B4 (Fab, V domains shown, Fab of the murine IgG2a kappa antibody as crystallized; also called 12B4 Fab) VH: QVTLKESGPGILQPSQTLSLTCSFSGFSLSTNGMGVSWIRQPSGKGLEWLAHIYWDEDKRYNPSLKSRLTISKDTSNNQVFLKITNVDTADTATYYCARRRIIYDVEDYFDYWGQGTTLTVSS VL: DVLMTQTPLSLPVSLGDQASISCRSSQNIVHSNGNTYLEWYLQKPGQSPKLLIYKVSNRFSGVPDRFSGSGSGTDFTLKISRVEAEDLGVYYCFQGSHVPLTFGAGTKLELK |  | binds | 
3 | 12B4 murine IgG2a kappa monoclonal antibody (antibody, V domains shown) VH: QVTLKESGPGILQPSQTLSLTCSFSGFSLSTNGMGVSWIRQPSGKGLEWLAHIYWDEDKRYNPSLKSRLTISKDTSNNQVFLKITNVDTADTATYYCARRRIIYDVEDYFDYWGQGTTLTVSS VL: DVLMTQTPLSLPVSLGDQASISCRSSQNIVHSNGNTYLEWYLQKPGQSPKLLIYKVSNRFSGVPDRFSGSGSGTDFTLKISRVEAEDLGVYYCFQGSHVPLTFGAGTKLELK | 24.5 |  | 
4 | Fab fragment of 12A11 (Fab, V domains shown, also called 12A11 Fab) VH: QVTLKESGPGILKPSQTLSLTCSFSGFSLSTSGMSVGWIRQPSGKGLEWLAHIWWDDDKYYNPSLKSRLTISKDTSRNQVFLKITSVDTADTATYYCARRTTTADYFAYWGQGTTLTVSS VL: DVLMTQTPLSLPVSLGDQASISCRSSQSIVHSNGNTYLEWYLQKPGQSPKLLIYKVSNRFSGVPDRFSGSGSGTDFTLKISRVEAEDLGIYYCFQSSHVPLTFGAGTKLELK |  | binds | binds
5 | Fab fragment of 3D6 (Fab, V domains shown, also called 3D6 Fab) VL: not shown V domain: EVKLVESGGGLVKPGASLKLSCAASGFTFSNYGMSWVRQNSDKRLEWVASIRSGGGRTYYSDNVKGRFTISRENAKNTLYLQMSSLKSEDTALYYCVRYDHYSGSSDYWGQGTTITVSS |  | binds | 
